Test results: patent US11571480B2, “Multi-ligand drug conjugates and uses thereof” (priority 2015, dated 2023)
Numbered stars: 1 amine (or outer) side, 2 acyl side, 3 side chain; on linkers, the order of the positions; unused ones are H or OH. Bridge positions count the residues as written; N and C are the ends. Square brackets hold non-standard residues; d marks the D form. Peptide text beside a SMILES is read from it. I, II: the chains in the order shown. * marks the point of attachment. Hexanoyl(6-succinimido-3yl) = O=C1CC([*:1])C(=O)N1CCCCCC(=O)[*:2]; Dolaproine = CO[C@@H]([C@@H]1CCCN1)[C@@H](C)C(=O)O; Dil = CC[C@H](C)[C@H](NC)[C@@H](CC(=O)O)OC; PABC = O=C(OCc1ccc(N[*:1])cc1)[*:2]; X1 = C[C@@H](N*)[C@@H](O)c1ccccc1; Cit = NC(=O)NCCC[C@H](N)C(=O)O; NMeV = CN[C@H](C(=O)O)C(C)C

Tests used:
[1] = tested on: Transplanted HCC1954 tumor; assay: Inhibitory assay of conjugates LDC10B and LDC10H against xenograf tumors; assay type: in vivo, nude mice; conditions: 10 mg/kg
Method: (§1) Animal: nude mice, aged 6-8 weeks, female
(§2) 1) human large cell lung cancer cell H460, human lung cancer cell A549, ovarian cancer cell SKOV3, and breast cancer cell line HCC1954 were incubated at 37° C., 5% CO2 in IMDM medium containing 10% fetal bovine serum, the cells were passaged every 2-3 days.
(§3) 2) generation of tumors: 7×10^6 tumor cells were injected subcutaneously into the back of nude mice, and the mice were grouped for treatment after the tumor sizes were as large as about 100-200 mm^3.
(§4) 3) treatment: 3 mice/group, treated with LDC10B, LDC10H, as well as controls MMAE and PBS with doses of 5 and 10 mg/kg every 5 days, three injections.
(§5) 4) the physical performance, body weights and tumor sizes of the animals were monitored. The number of animal death was recorded during the experiment.

Transplanted H460 tumor = assay: as above; assay type: in vivo, nude mice
Method: as §1, §2, §3, §4, §5

[2] = Detection of conjugate concentrations in xenograf tumor models (serum, anti-MMAE ELISA); assay type: in vivo, nude mice; conditions: 10 mg/kg, peritoneal injection
Method: as §1
1) Human ovarian cancer cell SKOV3 and breast cancer cell line HCC1954 were incubated at 37° C., 5% CO2 in IMDM medium containing 10% fetal bovine serum, the cells were passaged every 2-3 days.
2) generation of tumors: 7×10^6 tumor cells were injected subcutaneously into the back of nude mice, and the mice were grouped for treatment after the tumor sizes were as large as about 100˜200 mm^3.
3) treatment: 3 mice/group, 10 mg/kg, peritoneal injection.
4) blood collection: the time for blood collection before treatment was set as 0, blood was collected at 20 min, 2 h, 4 h, and 24 h after treatment. The blood was centrifuged to collect serum, which was frozen and preserved.
5) Detection: the total amount of MMAE, LDC10B, LDC10H, as well as the MMAE metabolites of LDC10B and LDC10H in serum were detected by mice anti-MMAE ELISA kit.

[3] = tested on: human lung cancer cell H460; assay: Cytotoxicity test of conjugate LDC10H; assay type: cell-based; conditions: H460, incubated 15-30 min, then 2-3 days
Method: (§6) Culture medium: RPMI 1640 Medium, no folic acid
(§7) 1) human lung cancer cell H1299, ovarian cancer cell SKOV3, breast cancer cell line HCC1954, and human lung cancer cell H460 were incubated at 37° C., 5% CO2 in RPMI 1640 medium containing 10% fetal bovine serum, the cells were passaged every 2-3 days.
(§8) 2) human lung cancer cell H1299, ovarian cancer cell SKOV3, breast cancer cell line HCC1954, and human lung cancer cell H460 were plated at 1×10^3 cells per well (96-well plate) and incubated for 8-12 h at 37° C., 5% CO2.
(§9) 3) Stock solutions of LDC conjugates or control were prepared in PBS solution. 100 μL/well of serially diluted LDC conjugates or control was added to the cells in the plate and incubated for 15-30 min at 37° C., 5% CO2. The culture medium in the wells was then removed by aspiration and the cells were incubated in fresh culture medium without conjugates (150 μL/well) for 2-3 days at 37° C., 5% CO2.
(§10) 4) CellTiter 96® Aqueous One Solution Cell Proliferation Assay (Promega) was added to each well to measure the amount of […] cells, and the plate was incubated in an incubator for 1 h at 37° C., 5% CO2.
(§11) 5) the plate was read at 490 nm on a microplate reader, and the cell survivals were compared for cells with or without the treatment of LDC conjugates. The LDC drug concentrations that are required for 50% cell death (IC50 values) were determined.

[4] = tested on: human lung cancer cell H1299; assay: Cytotoxicity test of conjugate LDC10H; assay type: cell-based; conditions: H1299, incubated 15-30 min, then 2-3 days
Method: as §6, §7, §8, §9, §10, §11

[5] = tested on: breast cancer cell line HCC1954; assay: Cytotoxicity test of conjugate LDC10H; assay type: cell-based, human; conditions: HCC1954, incubated 15-30 min, then 2-3 days
Method: as §6, §7, §8, §9, §10, §11

[6] = tested on: ovarian cancer cell SKOV3; assay: Cytotoxicity test of conjugate LDC10H; assay type: cell-based, human; conditions: SKOV3, incubated 15-30 min, then 2-3 days
Method: as §6, §7, §8, §9, §10, §11

melanoma cell line A375 = assay: Cytotoxicity test of conjugate LDC1013; assay type: cell-based
Method: as §6
1) human nasopharyngeal cancer cell line KB, melanoma cell line A375, and human lung cancer cell H460 were incubated at 37° C., 5% CO2 in RPMI 1640 medium containing 10% fetal bovine serum, the cells were passaged every 2-3 days.
2) human nasopharyngeal cancer cell line KB, melanoma cell line A375, and human lung cancer cell H460 were plated at 1×10^3 cells per well (96-well plate) and incubated for 8-12 h at 37° C., 5% CO2.
as §9, §10, §11

[7] = tested on: Transplanted HCC1954 tumor; assay: Inhibitory assay of conjugate LDC1013 against xenograf tumors; assay type: in vivo, nude mice; conditions: for Body weight of mice / Tumor size: HCC1954 tumor
Method: as §1
1) Human breast cancer cells HCC1954 were incubated at 37° C., 5% CO2 in IMDM medium containing 10% fetal bovine serum, the cells were passaged every 2-3 days.
2) generation of tumors: 7×10^6 tumor cells were injected subcutaneously into the back of nude mice, and the mice were grouped for treatment after the tumor sizes were as large as about 180-320 mm^3. […]
as §5

[8] = 2.5 mg/kg, 3 days after Injection 1
[9] = 2.5 mg/kg, 3 days after Injection 2
[10] = 2.5 mg/kg, 3 days after Injection 3
[11] = 2.5 mg/kg, 3 days after Injection 4
[12] = 2.5 mg/kg, 4 days after Injection 5
[13] = 2.5 mg/kg, 5 days after Injection 6
[14] = 2.5 mg/kg, 6 days after Injection 7
[15] = 5 mg/kg, 3 days after Injection 1
[16] = 5 mg/kg, 3 days after Injection 2
[17] = 5 mg/kg, 3 days after Injection 3
[18] = 5 mg/kg, 3 days after Injection 4
[19] = 5 mg/kg, 4 days after Injection 5
[20] = 5 mg/kg, 5 days after Injection 6

## CC[C@H](C)[C@@H]([C@@H](CC(=O)N1CCC[C@H]1[C@H](OC)[C@@H](C)C(=O)N[C@H](C)[C@@H](O)c1ccccc1)OC)N(C)C(=O)[C@@H](NC(=O)[C@H](C(C)C)N(C)C(=O)OCc1ccc(NC(=O)[C@H](CCCNC(N)=O)NC(=O)[C@@H](NC(=O)CCCCCN2C(=O)CC(SC[C@H](NC(=O)[C@H](CCCNC(=N)N)NC(=O)[C@H](CCCNC(=N)N)NC(=O)[C@H](CCCNC(=N)N)NC(=O)[C@H](CCCNC(=N)N)NC(=O)[C@H](CCCNC(=N)N)NC(=O)[C@H](CCCNC(=N)N)NC(=O)[C@H](CCCNC(=N)N)NC(=O)[C@H](CCCNC(=N)N)NC(=O)[C@@H](N)CCCNC(=N)N)C(=O)N[C@@H](CCCCN)C(=O)N[C@@H](CCC(=O)O)C(=O)N[C@@H](Cc3ccccc3)C(=O)N[C@@H](CC(C)C)C(=O)N[C@@H](Cc3c[nH]cn3)C(=O)N3CCC[C@H]3C(=O)N[C@@H](CO)C(=O)N[C@@H](CCCCN)C(=O)N[C@H](C(=O)N[C@@H](CC(=O)O)C(=O)N[C@@H](CC(C)C)C(=O)N3CCC[C@H]3C(=O)N[C@@H](CCCNC(=N)N)C(=O)O)C(C)C)C2=O)C(C)C)cc1)C(C)C (stereo partly shown) [LDC10H] (I: H-RRRRRRRRRCKEFLHPSKVDLPR-OH / II: V[Cit][PABC][NMeV]V[Dil][Dolaproine]-X1; linker I:10-II:N via Hexanoyl(6-succinimido-3yl))
[1]; Before Injection
  Body weight of mice: 22.05 g
[1]; Five days after Injection 1
  Body weight of mice: 23.32 g
[1]; Five days after Injection 2
  Body weight of mice: 22.87 g
[1]; Five days after Injection 3
  Body weight of mice: 22.51 g
Transplanted H460 tumor; 5 mg/kg, Before Injection
  Body weight of mice: 23.29 g
Transplanted H460 tumor; 5 mg/kg, Five days after Injection 1
  Body weight of mice: 24.26 g
Transplanted H460 tumor; 5 mg/kg, Five days after Injection 2
  Body weight of mice: 23.14 g
Transplanted H460 tumor; 5 mg/kg, Five days after Injection 3
  Body weight of mice: 23.22 g
Transplanted H460 tumor; 10 mg/kg, Before Injection
  Body weight of mice: 23.37 g
Transplanted H460 tumor; 10 mg/kg, Five days after Injection 1
  Body weight of mice: 24.39 g
Transplanted H460 tumor; 10 mg/kg, Five days after Injection 2
  Body weight of mice: 22.12 g
Transplanted H460 tumor; 10 mg/kg, Five days after Injection 3
  Body weight of mice: 23.61 g
[2]; 20 min
  Concentration in serum: 770 ng/mL
[2]; 2 h
  Concentration in serum: 580 ng/mL
[2]; 4 h
  Concentration in serum: 196 ng/mL
[2]; 24 h
  Concentration in serum: 0 ng/mL
  detected in serum at 24 h after treatment (in words): none
[2]; Before Treatment
  Concentration in serum: 0 ng/mL
[3]
  IC50: 85.3 nM
[4]
  IC50: 90.4 nM
[5]
  IC50: 36 nM
[6]
  IC50: 73.8 nM

## CC[C@H](C)[C@@H]([C@@H](CC(=O)N1CCC[C@H]1[C@H](OC)[C@@H](C)C(=O)N[C@H](C)[C@@H](O)c1ccccc1)OC)N(C)C(=O)[C@@H](NC(=O)[C@H](C(C)C)N(C)C(=O)OCc1ccc(NC(=O)[C@H](CCCNC(N)=O)NC(=O)[C@@H](NC(=O)CCCCCN2C(=O)CC(SC[C@H](NC(=O)[C@H](CCCNC(=N)N)NC(=O)[C@H](CCCNC(=N)N)NC(=O)[C@H](CCCNC(=N)N)NC(=O)[C@H](CCCNC(=N)N)NC(=O)[C@H](CCCNC(=N)N)NC(=O)[C@H](CCCNC(=N)N)NC(=O)[C@H](CCCNC(=N)N)NC(=O)[C@H](CCCNC(=N)N)NC(=O)[C@@H](N)CCCNC(=N)N)C(=O)NCCCC[C@H](NC(=O)[C@H](Cc3ccc(O)cc3)NC(=O)[C@H](CO)NC(=O)[C@H](Cc3c[nH]c4ccccc34)NC(=O)[C@H](Cc3c[nH]cn3)NC(=O)[C@@H]3CCC(=O)N3)C(=O)N[C@@H](CC(C)C)C(=O)N[C@@H](CCCNC(=N)N)C(=O)N3CCC[C@H]3C(=O)NCC(N)=O)C2=O)C(C)C)cc1)C(C)C (stereo partly shown) [LDC1013]
Melanoma cell line A375
  less toxic for A375 than for H460 and KB, respectively: 10-100 fold
[7]; HCC1954, 7 doses at 2.5 mg/kg and 7 doses of 5 mg/kg injected every three days
  tumor response (in words): completely eliminate
[7]; [8]
  Body weight of mice: 24.46 g
  Tumor size: 198 mm^3
[7]; [9]
  Body weight of mice: 24.54 g
  Tumor size: 198 mm^3
[7]; [10]
  Body weight of mice: 23.94 g
  Tumor size: 180 mm^3
[7]; [11]
  Body weight of mice: 24.3 g
  Tumor size: 113 mm^3
[7]; [12]
  Body weight of mice: 24.98 g
  Tumor size: 64 mm^3
[7]; [13]
  Body weight of mice: 24.73 g
  Tumor size: 22 mm^3
[7]; [14]
  Body weight of mice: 24.43 g
  Tumor size: 0 mm^3
[7]; 2.5 mg/kg, Before Injection
  Body weight of mice: 24.14 g
  Tumor size: 180 mm^3
[7]; [15]
  Body weight of mice: 20.7 g
  Tumor size: 405 mm^3
[7]; [16]
  Body weight of mice: 20.43 g
  Tumor size: 405 mm^3
[7]; [17]
  Body weight of mice: 21.31 g
  Tumor size: 288 mm^3
[7]; [18]
  Body weight of mice: 21.15 g
  Tumor size: 88 mm^3
[7]; [19]
  Body weight of mice: 21.21 g
  Tumor size: 40 mm^3
[7]; [20]
  Body weight of mice: 20.49 g
  Tumor size: 0 mm^3
[7]; 5 mg/kg, 6 days after Injection 7
  Body weight of mice: 24.49 g
[7]; 5 mg/kg, Before Injection
  Body weight of mice: 21.92 g
  Tumor size: 320 mm^3
